Six molecules from patent publication US9993566B2, “SEZ6 modulators and methods of use” (AbbVie Stemcentrx LLC, priority 2013, dated 2018) can be followed below.

Holding throughout (assay type): binding
The test system of one experiment is cynomolgus SEZ6. Briefly: Flow cytometry cross reactivity, yeast displaying extracellular domain of cynomolgus SEZ6. Particulars: 5 μg/mL antibody. The procedure:
(§1) In this regard flow cytometry was performed using a FACSCanto II as per the manufacturer's instructions in order to confirm that selected SC17 antibody modulators can immunospecifically associate with human SEZ6 and to determine whether the same modulators cross-react with cynomolgus, rat and/or murine SEZ6 in addition to SEZ6L and SEZ6L2. More particularly modulators were tested for cross reactivity to murine SEZ6 and rat SEZ6 by flow cytometry against Neuro2a (ATCC Cat # CCL131), and RIN-m5F (ATCC cat # CRL-11605) cell lines which express mouse SEZ6 and rat SEZ6, respectively. For examining cross reactivity to cynomolgus SEZ6, yeast displaying the extracellular domain of cynomolgus SEZ6 (Boder et al, 1997) were used for flow cytometry analysis.
(§2) Briefly 1×10^5 cells per well of Neuro2a, RIN-5mF, or yeast displaying cynomolgus SEZ6 cells were incubated for 30 minutes with 50 μL PBS (2% FCS) buffer with 5 μg/mL antibody. Cells were washed twice with the same buffer and then incubated with 50 μL per sample DyLight 649 labeled goat-anti-mouse IgG, Fc fragment specific secondary diluted 1:200 in PBS buffer. After incubating for 15 minutes cells were washed twice with the PBS buffer and re-suspended in the same with DAPI for flow cytometry analysis of Neuro2a and Rin-m5F or buffer without DAPI for flow cytometric analysis of yeast cells with cSEZ6.
On the technique in general: Flow cytometry measures light scatter and fluorescence of single cells or particles in a stream.

Another experiment concerns rat SEZ6. Briefly: Flow cytometry cross reactivity, RIN-m5F cells. Particulars: 5 μg/mL antibody. The procedure:
as §1, §2

The next experiment has as its target T1, SEZ6 ECD (Homo sapiens, UniProt Q53EL9).
T1 construct: SEZ6 extracellular domain (amino acids 1-904); expressed in transfected cells; host or cells: yeast (surface display, Cochran et al. protocol)
The experiment can be described thus: Fine epitope mapping (phage display peptide library or yeast-displayed SEZ6 ECD mutants). The settings on record: epitope conformational (discontinuous) or linear. The procedure: Epitopes were classified either as conformational (i.e. discontinuous) or linear. Yeast displaying the SEZ6 ECD construct was heat treated for 30 minutes at 80° C. in order to denature the antigen, washed twice in ice-cold PBSA and then subjected to the same staining protocol and flow cytometry analysis as described above. Antibodies that bound to both the denatured and native yeast were classified as binding to a linear epitope, whereas antibodies that bound native yeast but not denatured yeast were classified as conformationally specific.
Fine epitope mapping was further performed on selected antibodies to determine the specific amino acids to which they bound. Antibodies that bound to a linear epitope were mapped using the Ph.D.-12 phage display peptide library kit (New England Biolabs E8110S). The antibody selected for epitope mapping was coated onto a Nunc MaxiSorp tube (Nunc) at 50 μg/mL in 3 mL 0.1 M sodium bicarbonate solution, pH 8 and incubated overnight. The tube was blocked with 3% BSA solution in bicarbonate solution. Then, 10^11 input phage in PBS+0.1% Tween-20 was allowed to bind, followed by ten consecutive washes with 0.1% Tween-20 to wash away non-binding phage. Remaining phage were eluted with 1 mL 0.2 M glycine for 10 minutes at room temperature with gentle agitation, followed by neutralization with 150 μL 1 M Tris-HCl pH 9. Eluted phage were amplified and panned again with 10^11 input phage, using 0.5% Tween-20 during the wash steps to increase selection stringency. DNA from 24 plaques of the eluted phage from the second round was isolated using the Qiaprep M13 Spin kit (Qiagen) and sequenced. Binding of clonal phage was confirmed using an ELISA assay, where the mapped antibody or a control antibody was coated onto an ELISA plate, blocked, and exposed to each clone phage. Phage binding was detected using horseradish peroxidase conjugated anti-M13 antibody (GE Healthcare), and the 1-Step Turbo TMB ELISA solution (Pierce). Phage peptide sequences from specifically binding phage were aligned using Vector NTI (Life Technologies) against the antigen ECD peptide sequence to determine the epitope of binding.
Selected antibodies that bound to a discontinuous epitope were mapped using the technique described by Chao et al. (2007). Libraries of SEZ6 ECD mutants were generated with error prone PCR using nucleotide analogues 8-oxo-2′deoxyguanosine-5′-triphosphate and 2′-deoxy-p-nucleoside-5′triphosphate (both from TriLink Bio) for a target mutagenesis rate of one amino acid mutation per clone. These were transformed into a yeast display format. Using the technique described above for domain-level mapping, the library was stained for c-myc and antibody binding at 50 nM. […] These clones were re-grown, and subjected to another round of FACS sorting for loss of binding to the target antibody. Using the Zymoprep Yeast Plasmid Miniprep kit (Zymo Research), individual ECD clones were isolated and sequenced. Where necessary, mutations were reformatted as single-mutant ECD clones using the Quikchange site directed mutagenesis kit (Agilent).
Individual ECD clones were next screened to determine whether loss of binding was due to a mutation in the epitope, or a mutation that caused misfolding. Mutations that involved cysteine, proline, and stop codons were automatically discarded due to the high likelihood of a misfolding mutation. Remaining ECD clones were then screened for binding to a non-competing, conformationally specific antibody. ECD clones that lost binding to non-competing, conformationally specific antibodies were concluded to contain misfolding mutations, whereas ECD clones that retained equivalent binding as wild type SEZ6 ECD were concluded to be properly folded. Mutations in the ECD clones in the latter group were concluded to be in the epitope. […]

In experiment [1] the target is T2, human recombinant SEZ6-His (Homo sapiens, UniProt Q53EL9).
T2 construct: The cDNA fragment encoding the ECD of SEZ6 was amplified from the hSEZ6 cDNA clone; IgK signal peptide (N, cleaved yes); made in house; host or cells: HEK-293T and/or CHO-S
The experiment can be described thus: Affinity by bio-layer interferometry (ForteBio RED) or surface plasmon resonance (Biacore 2000). The settings on record: surface plasmon resonance. The procedure: Various methods were used to analyze the binding and immunochemical characteristics of selected SEZ6 modulators generated as set forth above. Specifically, a number of the antibody modulators were characterized as to affinity, binning, and cross reactivity with regard to human, cynomolgus, rat and mouse SEZ6 antigen along with SEZ6L and SEZ6L2 proteins by art-recognized methods including flow cytometry. Affinities and kinetic constants kon and koff of the selected modulators were measured using bio-layer interferometry analysis on a ForteBio RED (ForteBio, Inc.) or surface plasmon resonance using a Biacore 2000 each according to the manufacturer's instructions.
To verify the cross reactivity data above for rat SEZ6 and to determine the affinity and kinetic constants kon and koff of the selected effectors, either bio-layer interferometry analysis on a ForteBio RED (ForteBio, Inc.) or surface plasmon resonance on a Biacore 2000 (GE Healthcare) were conducted. Affinities were determined to both human recombinant SEZ6-His and rat recombinant SEZ6-His generated in Example 5.
Binding characteristics of the following humanized constructs from Example 8, hSC17.16, hSC17.17, hSC17.24, hSC17.28, hSC17.34 and hSC17.46, were analyzed in order to determine whether the CDR grafting process had appreciably altered their binding characteristics. The humanized constructs (CDR grafted) were compared with “traditional” chimeric antibodies comprising the murine parent (or donor) heavy and light chain variable domains and a human constant region substantially equivalent to that used in the humanized constructs. With these constructs surface plasmon resonance was conducted using a Biacore 2000 (GE Healthcare) to identify any subtle changes in rate constants brought about by the humanization process.
Background: Biolayer interferometry detects binding as a change in optical thickness at a sensor tip.

In a further experiment the target is T3, SEZ6L2 (Homo sapiens, UniProt Q6UXD5, INS830AYEELLDNRKLEV).
T3 construct: IgK signal peptide (N, cleaved yes); made in house; host or cells: HEK-293T or CHO-S
T3 sequence (Q6UXD5 with tags, fused parts or gaps with the stated changes): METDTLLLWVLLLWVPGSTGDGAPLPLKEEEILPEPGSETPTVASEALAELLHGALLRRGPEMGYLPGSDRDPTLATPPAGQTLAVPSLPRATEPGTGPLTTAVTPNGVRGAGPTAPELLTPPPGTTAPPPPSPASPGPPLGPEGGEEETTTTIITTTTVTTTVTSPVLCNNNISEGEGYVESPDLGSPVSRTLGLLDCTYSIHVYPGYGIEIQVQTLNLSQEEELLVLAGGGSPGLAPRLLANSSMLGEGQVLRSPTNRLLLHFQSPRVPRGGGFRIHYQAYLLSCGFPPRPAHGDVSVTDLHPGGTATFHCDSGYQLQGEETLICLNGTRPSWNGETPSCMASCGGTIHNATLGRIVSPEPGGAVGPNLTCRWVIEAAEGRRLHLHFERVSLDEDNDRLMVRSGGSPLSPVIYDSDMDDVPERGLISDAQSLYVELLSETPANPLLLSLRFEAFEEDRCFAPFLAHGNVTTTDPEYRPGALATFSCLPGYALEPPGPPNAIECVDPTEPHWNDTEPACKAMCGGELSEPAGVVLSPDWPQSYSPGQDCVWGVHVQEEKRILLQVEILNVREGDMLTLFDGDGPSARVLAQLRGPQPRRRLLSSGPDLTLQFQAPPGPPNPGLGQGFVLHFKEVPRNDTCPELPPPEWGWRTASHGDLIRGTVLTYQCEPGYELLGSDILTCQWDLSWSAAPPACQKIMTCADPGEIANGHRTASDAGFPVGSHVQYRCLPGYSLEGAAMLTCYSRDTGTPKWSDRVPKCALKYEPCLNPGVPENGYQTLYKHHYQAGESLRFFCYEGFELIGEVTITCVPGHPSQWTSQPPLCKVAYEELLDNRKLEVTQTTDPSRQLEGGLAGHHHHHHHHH
The experiment can be described thus: ELISA cross reactivity to family member SEZ6L2. Further details: key to binds SEZ6 family member SEZ6L2 (dagger): *: antibodies that bind SEZ6 family members SEZ6L and SEZ6L2 are designated with an asterisk and/or a dagger, respectively; †: antibodies that bind SEZ6 family members SEZ6L and SEZ6L2 are designated with an asterisk and/or a dagger, respectively. Here is the method:
To determine cross reactivity to family member proteins, SEZ6L and SEZ6L2, an ELISA-based assay was used. Plates were coated with SEZ6, SEZ6L, or SEZ6L2 proteins at 0.2 μg/mL in PBS overnight. After washing with PBS containing 0.05% (v/v) Tween 20 (PBST), the wells were blocked with 2% (w/v) BSA in PBS (PBSA), 100 μL/well for 1 hour at room temperature. Antibody was then added at 1 μg/mL in 100 μL PBSA for 1 hour at room temperature. After washing with PBST, 100 μL/well HRP-labeled goat anti-mouse IgG diluted 1:2,000 in PBSA for 1 hour at room temperature. The plates were washed and 100 μL/well of the TMB substrate solution (Thermo Scientific 34028) was added for 15 minutes at room temperature. After developing, an equal volume of 2M H2SO4 was added to stop substrate development and analyzed by spectrophotometer at OD 450. […] As discussed above, such pan-SEZ6 antibodies are compatible with the teachings herein and may be used in conjunction with the disclosed methods.
In general terms: An ELISA detects its analyte on a solid surface through an enzyme-linked reagent.

Sequence of rat SEZ6 (as listed by the source): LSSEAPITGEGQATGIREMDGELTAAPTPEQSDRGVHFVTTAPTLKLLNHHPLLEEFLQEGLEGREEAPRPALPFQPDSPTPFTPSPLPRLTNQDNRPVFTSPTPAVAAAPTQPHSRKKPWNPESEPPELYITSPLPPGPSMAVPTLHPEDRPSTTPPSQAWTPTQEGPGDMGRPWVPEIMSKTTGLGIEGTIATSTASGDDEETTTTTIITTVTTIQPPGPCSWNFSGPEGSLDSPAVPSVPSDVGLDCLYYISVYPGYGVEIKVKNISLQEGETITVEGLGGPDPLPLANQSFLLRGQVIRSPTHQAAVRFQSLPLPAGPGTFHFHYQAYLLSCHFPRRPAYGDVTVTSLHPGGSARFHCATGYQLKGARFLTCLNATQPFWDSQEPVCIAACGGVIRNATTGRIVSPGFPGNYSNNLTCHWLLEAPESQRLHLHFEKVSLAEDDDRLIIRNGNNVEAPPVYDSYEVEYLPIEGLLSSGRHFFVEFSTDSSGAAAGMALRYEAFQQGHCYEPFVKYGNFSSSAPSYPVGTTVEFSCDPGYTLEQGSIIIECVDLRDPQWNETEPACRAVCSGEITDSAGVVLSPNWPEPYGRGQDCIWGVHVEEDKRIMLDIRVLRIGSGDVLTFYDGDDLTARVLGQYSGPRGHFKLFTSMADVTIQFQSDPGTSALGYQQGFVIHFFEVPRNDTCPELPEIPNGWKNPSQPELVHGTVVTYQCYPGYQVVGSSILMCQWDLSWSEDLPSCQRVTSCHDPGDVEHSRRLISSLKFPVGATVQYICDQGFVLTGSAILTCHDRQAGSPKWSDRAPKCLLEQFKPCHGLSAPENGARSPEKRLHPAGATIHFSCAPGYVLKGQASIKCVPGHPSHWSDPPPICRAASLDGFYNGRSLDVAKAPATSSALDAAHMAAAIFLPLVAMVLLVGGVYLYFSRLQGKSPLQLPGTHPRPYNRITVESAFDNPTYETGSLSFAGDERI

B1: SC17.45: murine anti-SEZ6 antibody (antibody, V domains shown)
VH: QVQLQQPGSVLVRPGDSVKLSCKASGYTFTSYWMHWVKQSPGQGLEWIGEIHPHSGSTNYNEKFKGKATLTVDTSSSTAYVDLSSLTSEDSAVYYCVGGHYDYWGQGTTLTVSS
VL: ENVLTQSPAIMSASPGEKVTMTCSASSSVNYMYWYQQKSSTSPKLWIYDTSKLTSGVPGRFSGSGSGNSYSLTISNMEAEDVATYYCFQGSGYPLTFGSGTKLEIK
modifications: Murine SC17.45 VH; Murine SC17.45 VL
notes: murine anti-SEZ6 antibody
For B1, the “cross reactivity to cynomolgus SEZ6” value in the experiment with cynomolgus SEZ6 is “cross reactive”.

B2: SC17.17: murine anti-SEZ6 antibody (antibody, V domains shown)
VH: EVQLQQSGPEVMKPGASVKMSCKASGYTFTDYNMHWVKQNQGKSLEWIGEINPNIGGTGYNQKFKGKATLTVHKSSSTAYMELRSLTSEDSAVYYCARTYSYYSYEFAYWGQGTLVTVSA
VL: QIVLTQSPAIMSASPGEKVTMTCSASSSVSYMHWYQQKSGTSPKRWIYDTSKLPSGVPARFSGSGSGTSYSLTISSMEAEDAATYYCQQWSSTPPTFGAGTKLELK
modifications: Murine SC17.17 VH; Murine SC17.17 VL
notes: murine anti-SEZ6 antibody
In the case of B2, the “cross reactivity to rat SEZ6” value in the experiment on rat SEZ6 is “cross reactive”. Besides, the Discontinuous entry with SEZ6 ECD is “Yes”. Further, the “cross reactivity to cynomolgus SEZ6” value in the experiment with cynomolgus SEZ6 was “cross reactive”.

B3: hSC17.16: humanized (CDR grafted) anti-SEZ6 antibody derived from SC17.16 (antibody, V domains shown)
VH: QVQLVQSGAEVKKPGASVKVSCKASGYTFTDYNMYWVRQAPGQGLEWMGEINPNNGGTAYNQKFRGKVTMTRDTSISTAYMELSRLRSDDTAVYYCARYDKGFDYWGQGTTVTVSS
VL: DIQMTQSPSSLSASVGDRVTITCRASANINSNLVWYQQKPGKAPKLLIYAATNLADGVPSRFSGSGSGTDFTLTISSLQPEDFATYYCQHFWGTPRTFGGGTKLEIK
modifications: Humanized hSC17.16 VH; Humanized hSC17.16 VL
B3: the “binding affinity compared with corresponding murine or chimeric antibody” value in experiment [1] is reported as “equivalent or better than the corresponding murine antibodies”.

B4: SC17.28: murine anti-SEZ6 antibody (antibody, V domains shown)
VH: QVHLPQSRPELVKPGASVKISCKASGYGFTRSYIHWVKQRPGQGLEWIGYISSGSGGTTYNQKFKGKASLTADNPSSTAYMHLSSLTSEDSAIYFCARGGVRYFDVWGAGTTVTVSS
VL: DILLTQSPAILSVSPGEGVSFSCRASQSIGTSIHWYQQRTNGSPRLLIKYASESISGIPSRFSGSGSGTDFTLRINSLESEDIADYYCQQSNSWPLTFGAGTKLELK
modifications: Murine SC17.28 VH; Murine SC17.28 VL
notes: murine anti-SEZ6 antibody
With B4, the “cross reactivity to rat SEZ6” value in the experiment with rat SEZ6 is recorded as “cross reactive”. In the experiment with SEZ6L2 (ELISA, antibody 1 μg/mL), the “cross reactivity with SEZ6L2” value is given as “cross-reactive”. In addition, the “binds SEZ6 family member SEZ6L2 (dagger)” value in the experiment with SEZ6L2 (mark in Table 5) was “SC17.6^†, SC17.28^†, SC17.103, SC17.109, SC17.119,”.

B5: hSC17.17: humanized (CDR grafted) anti-SEZ6 antibody derived from SC17.17 (antibody, V domains shown)
VH: QVQLVQSGAEVKKPGASVKVSCKASGYTFTDYNMHWVRQAPGQGLEWMGEINPNIGGTGYNQKFKGRVTMTRDTSISTAYMELSRLRSDDTAVYYCARTYSYYSYEFAYWGQGTLVTVSS
VL: EIVLTQSPATLSLSPGERATLSCSASSSVSYMHWYQQKPGQAPRLLIYDTSKLPSGIPARFSGSGSGTDFTLTISSLEPEDFAVYYCQQWSSTPPTFGQGTKLEIK
modifications: Humanized hSC17.17 VH; Humanized hSC17.17 VL
With B5, the “binding affinity compared with corresponding murine or chimeric antibody” value in experiment [1] is on record as “equivalent or better than the corresponding murine antibodies”.

B6: SC17.36: murine anti-SEZ6 antibody (antibody, V domains shown)
VH: EVQLQESGPSLVKPSQSQSLTCSVTGDSITSDYWNWIRKFPGKKVEYMGYINYSGSTYYNPSLKSRISITRDTSKNQYYLQLNSVTSEDTATYYCARTSYYNKFLPFAYWGQGTLVTVSA
VL: QIVLTQSPALMSASPGEKVTMTCSASSSVSYMYWYQQKPRSSPKPWIYLTSNLASGVPARFSGSGSGTSYSLTISSMEAEDAATYYCQQWSSNPPTFGGGTKLEIK
modifications: Murine SC17.36 VH; Murine SC17.36 VL
notes: murine anti-SEZ6 antibody
As for B6, in the experiment with SEZ6 ECD, the Discontinuous entry is reported as “Yes”. Besides, the “cross reactivity to cynomolgus SEZ6” value in the experiment on cynomolgus SEZ6 is given as “cross reactive”.
